Source: patent publication US20220177587A1, “METHODS AND USES OF VARIANT CD80 FUSION PROTEINS AND RELATED CONSTRUCTS” (Alpine Immune Sciences, Inc., priority 2018, published 2022)

Columns and labels:
[1] = biological target: human PD-L1 (huPD-L1), on stably transduced CHO cells (human) (UniProt Q9NZQ7); assay: flow cytometry; ratio of MFI on CHO/huPD-L1 cells to MFI on Jurkat (CD28) cells
[2] = biological target: human CTLA-4 (huCTLA4), on stably transduced CHO cells (human) (UniProt P16410); assay: flow cytometry on CHO/huCTLA4 cells; MFI relative to WT CD80 (CD80 WT IgV-Fc = 1.0)
Sequence of human CTLA-4 (huCTLA4), on stably transduced CHO cells (human) (P16410 36-223): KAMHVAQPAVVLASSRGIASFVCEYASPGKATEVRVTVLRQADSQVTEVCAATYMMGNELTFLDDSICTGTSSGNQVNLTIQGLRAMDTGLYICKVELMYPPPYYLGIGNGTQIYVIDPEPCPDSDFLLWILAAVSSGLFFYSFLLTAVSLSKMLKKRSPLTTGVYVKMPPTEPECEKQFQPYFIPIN

[3] = biological target: human PD-L1 (huPD-L1), on stably transduced CHO cells (human) (UniProt Q9NZQ7); assay: flow cytometry on CHO/huPD-L1 cells; MFI relative to WT CD80 (CD80 WT IgV-Fc = 1.0)
[4] = biological target: CD28, endogenously expressed on Jurkat/IL2 reporter cells (human) (UniProt P10747); assay: flow cytometry on Jurkat (CD28) cells; MFI relative to WT CD80 (CD80 WT IgV-Fc = 1.0)
[5] = biological target: human CTLA-4 (huCTLA4), on stably transduced CHO cells (human) (UniProt P16410); assay: flow cytometry on CHO cells stably expressing huCTLA4, 33.3 nM Fc fusion, PE anti-human Fc
[6] = biological target: human PD-L1 (huPD-L1), on stably transduced CHO cells (human) (UniProt Q9NZQ7); assay: flow cytometry on CHO cells stably expressing huPD-L1, 33.3 nM Fc fusion, PE anti-human Fc
[7] = biological target: CD28, endogenously expressed on Jurkat/IL2 reporter cells (human) (UniProt P10747); assay: flow cytometry on Jurkat/IL2 reporter cells (endogenous CD28), 33.3 nM Fc fusion, PE anti-human Fc
[8] = biological target: CD28 (human) (UniProt P10747)
[9] = biological target: human PD-L1 (human) (UniProt Q9NZQ7)
Target sequence in this assay (Q9NZQ7 19-290 limits assumed): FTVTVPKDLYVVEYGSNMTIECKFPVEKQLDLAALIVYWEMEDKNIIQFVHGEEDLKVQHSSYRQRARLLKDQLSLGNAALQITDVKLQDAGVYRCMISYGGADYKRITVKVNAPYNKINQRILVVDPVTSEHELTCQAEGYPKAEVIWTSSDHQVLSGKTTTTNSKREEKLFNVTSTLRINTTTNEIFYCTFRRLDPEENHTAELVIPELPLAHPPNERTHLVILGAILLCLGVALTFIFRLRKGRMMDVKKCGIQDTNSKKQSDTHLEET

[10] = biological target: human PD-L1 (human) (UniProt Q9NZQ7); assay: flow cytometry, CHO cells expressing huPD-L1
Target sequence in this assay (Q9NZQ7 19-290): as the sequence (Q9NZQ7 19-290 limits assumed) above

[11] = biological target: human CTLA-4 (human) (UniProt P16410); assay: flow cytometry, CHO cells expressing huCTLA-4
Sequence of human CTLA-4 (human) (P16410 36-223): as the sequence (P16410 36-223) above

[12] = biological target: CD28 (human) (UniProt P10747); assay: flow cytometry, Jurkat/IL2 reporter cells (CD28)
[13] = biological target: human PD-L1 (human) (UniProt Q9NZQ7); assay: flow cytometry; PD-L1 MFI over CD28 MFI of the same protein
Target sequence in this assay (Q9NZQ7 19-290): as the sequence (Q9NZQ7 19-290 limits assumed) above

[14] = biological target: human PD-L1 (human) (UniProt Q9NZQ7); assay: flow cytometry, CHO/huPD-L1 cells; vs WT CD80 ECD-Fc (Abcam)
Target sequence in this assay (Q9NZQ7 19-290): as the sequence (Q9NZQ7 19-290 limits assumed) above

[15] = biological target: human CTLA-4 (human) (UniProt P16410); assay: flow cytometry, CHO/huCTLA-4 cells; vs WT CD80 ECD-Fc (Abcam)
[16] = biological target: CD28 (human) (UniProt P10747); assay: flow cytometry, Jurkat cells (CD28); vs WT CD80 ECD-Fc (Abcam)
[17] = biological target: human CTLA-4 (human) (UniProt P16410); assay: flow cytometry, CHO cells expressing huCTLA4
[18] = biological target: human CTLA-4 (human) (UniProt P16410); assay: flow cytometry, CHO cells expressing huCTLA4, vs WT CD80 ECD-Fc (R&D)
[19] = biological target: CD28 (human) (UniProt P10747); assay: flow cytometry, Jurkat/IL2 reporter cells (CD28), vs WT CD80 ECD-Fc (R&D)

Sequence of human PD-L1 (huPD-L1), on stably transduced CHO cells (human) (Q9NZQ7 19-290): as the sequence (Q9NZQ7 19-290 limits assumed) above

Ratio of PDL1:CD28 [1]	Fold change to WT CD80 [2] [fold]	Fold change to WT CD80 [3] [fold]	Fold change to WT CD80 [4] [fold]	MFI at 33.3 nM [5] [MFI]	MFI at 33.3 nM [6] [MFI]	MFI at 33.3 nM [7] [MFI]	IL-2 luciferase reporter, fold increase over WT CD80-IgV-Fc at 5.0 nM [8] [fold]	IL-2 luciferase reporter, fold increase over WT CD80-IgV-Fc at 5.0 nM [9] [fold]	MFI at 33.3 nM [10] [MFI]	MFI at 33.3 nM [11] [MFI]	MFI at 33.3 nM [12] [MFI]	Ratio of PDL1:CD28 [13]	Fold change to WT CD80 [14] [fold]	Fold change to WT CD80 [15] [fold]	Fold change to WT CD80 [16] [fold]	MFI at 33.3 nM [17] [MFI]	Fold change to WT CD80 [18] [fold]	Fold change to WT CD80 [19] [fold]	Binder
6	14.8	104	20.1	28400	7330	1320	–	–	–	–	–	–	–	–	–	–	–	–	variant CD80 IgV-Fc D46V/M47I/A71G (Fc fusion) VIHVTKEVKEVATLSCGHNVSVEELAQTRIYWQKEKKMVLTMMSGVINIWPEYKNRTIFDITNNLSIVILGLRPSDEGTYECVVLKYEKDAFKREHLAEVTLSVKAD
–	–	–	–	–	–	–	5.8	5.8	14500	34600	641	22.6	113	0.9	0.9	–	–	–	variant CD80 IgV-Fc M47V/N48K/V68M (Fc fusion) VIHVTKEVKEVATLSCGHNVSVEELAQTRIYWQKEKKMVLTMMSGDVKIWPEYKNRTIFDITNNLSIMILALRPSDEGTYECVVLKYEKDAFKREHLAEVTLSVKAD
6	14.5	72.5	12.5	27800	5100	823	–	–	–	–	–	–	–	–	–	–	–	–	variant CD80 IgV-Fc M47I/A71G (Fc fusion) VIHVTKEVKEVATLSCGHNVSVEELAQTRIYWQKEKKMVLTMMSGDINIWPEYKNRTIFDITNNLSIVILGLRPSDEGTYECVVLKYEKDAFKREHLAEVTLSVKAD
–	–	–	–	–	–	–	3.9	3.9	2320	33300	68.7	33.7	18.1	0.8	0.1	–	–	–	variant CD80 IgV-Fc M47V (Fc fusion) VIHVTKEVKEVATLSCGHNVSVEELAQTRIYWQKEKKMVLTMMSGDVNIWPEYKNRTIFDITNNLSIVILALRPSDEGTYECVVLKYEKDAFKREHLAEVTLSVKAD
12	14.6	38.5	3.5	27900	2700	230	–	–	–	–	–	–	–	–	–	–	–	–	variant CD80 IgV-Fc Q27L/E35D/M47V/I61V/L85M (Fc fusion) VIHVTKEVKEVATLSCGHNVSVEELALTRIYWQKDKKMVLTMMSGDVNIWPEYKNRTIFDVTNNLSIVILALRPSDEGTYECVVMKYEKDAFKREHLAEVTLSVKAD
–	–	–	–	–	–	–	6.1	6.1	25900	23900	1080	23.9	203	0.6	1.5	–	–	–	variant CD80 IgV-Fc E35D/D46V/M47V/N48K/V68M (Fc fusion) VIHVTKEVKEVATLSCGHNVSVEELAQTRIYWQKDKKMVLTMMSGVVKIWPEYKNRTIFDITNNLSIMILALRPSDEGTYECVVLKYEKDAFKREHLAEVTLSVKAD
42	8.7	118	3	16600	8310	199	–	–	–	–	–	–	–	–	–	–	–	–	variant CD80 IgV-Fc E35D/M47L/A71G/L85M (Fc fusion) VIHVTKEVKEVATLSCGHNVSVEELAQTRIYWQKDKKMVLTMMSGDLNIWPEYKNRTIFDITNNLSIVILGLRPSDEGTYECVVMKYEKDAFKREHLAEVTLSVKAD
–	–	–	–	–	–	–	4.8	4.8	4290	7280	328	13.1	33.5	0.2	0.5	–	–	–	variant CD80 IgV-Fc M47V/V68M (Fc fusion) VIHVTKEVKEVATLSCGHNVSVEELAQTRIYWQKEKKMVLTMMSGDVNIWPEYKNRTIFDITNNLSIMILALRPSDEGTYECVVLKYEKDAFKREHLAEVTLSVKAD
4	11.2	53.9	15.2	21400	3790	1000	–	–	–	–	–	–	–	–	–	–	–	–	variant CD80 IgV-Fc E35D/D46E/M47I (Fc fusion) VIHVTKEVKEVATLSCGHNVSVEELAQTRIYWQKDKKMVLTMMSGEINIWPEYKNRTIFDITNNLSIVILALRPSDEGTYECVVLKYEKDAFKREHLAEVTLSVKAD
14	12.6	108	8	24200	7580	528	–	–	–	–	–	–	–	–	–	–	–	–	variant CD80 IgV-Fc H18Y/E35D/M47L/A71G/A91S (Fc fusion) VIHVTKEVKEVATLSCGYNVSVEELAQTRIYWQKDKKMVLTMMSGDLNIWPEYKNRTIFDITNNLSIVILGLRPSDEGTYECVVLKYEKDSFKREHLAEVTLSVKAD
–	–	–	–	–	–	–	2.5	2.5	757	21800	236	3.2	5.9	0.5	0.3	–	–	–	variant CD80 IgV-Fc E35D/K89N (Fc fusion) VIHVTKEVKEVATLSCGHNVSVEELAQTRIYWQKDKKMVLTMMSGDMNIWPEYKNRTIFDITNNLSIVILALRPSDEGTYECVVLKYENDAFKREHLAEVTLSVKAD
–	–	–	–	–	–	–	5.8	5.8	4340	39300	507	8.6	33.9	1	0.7	–	–	–	variant CD80 IgV-Fc E35D/M47V/K89N (Fc fusion) VIHVTKEVKEVATLSCGHNVSVEELAQTRIYWQKDKKMVLTMMSGDVNIWPEYKNRTIFDITNNLSIVILALRPSDEGTYECVVLKYENDAFKREHLAEVTLSVKAD
5	14.4	48.7	11.5	27500	3420	756	–	–	–	–	–	–	–	–	–	–	–	–	variant CD80 IgV-Fc Q27H/E35D/M47I (Fc fusion) VIHVTKEVKEVATLSCGHNVSVEELAHTRIYWQKDKKMVLTMMSGDINIWPEYKNRTIFDITNNLSIVILALRPSDEGTYECVVLKYEKDAFKREHLAEVTLSVKAD
5	14.6	53.4	11.8	27900	3760	779	–	–	–	–	–	–	–	–	–	–	–	–	variant CD80 IgV-Fc E35D/D46E (Fc fusion) VIHVTKEVKEVATLSCGHNVSVEELAQTRIYWQKDKKMVLTMMSGEMNIWPEYKNRTIFDITNNLSIVILALRPSDEGTYECVVLKYEKDAFKREHLAEVTLSVKAD
18	15.8	41	2.5	30300	2880	164	–	–	–	–	–	–	–	–	–	–	–	–	variant CD80 IgV-Fc E35D/D46E/L85M (Fc fusion) VIHVTKEVKEVATLSCGHNVSVEELAQTRIYWQKDKKMVLTMMSGEMNIWPEYKNRTIFDITNNLSIVILALRPSDEGTYECVVMKYEKDAFKREHLAEVTLSVKAD
–	–	–	–	–	–	–	–	–	35300	–	15300	–	–	–	–	246000	1.56	0.85	variant CD80 IgV-Fc V22A/E35D/M47I/Y87N (Fc fusion) VIHVTKEVKEVATLSCGHNVSAEELAQTRIYWQKDKKMVLTMMSGDINIWPEYKNRTIFDITNNLSIVILALRPSDEGTYECVVLKNEKDAFKREHLAEVTLSVKAD
